Measured values taken from patent US20210230248A1, “Multivalent pharmacophores for high avidity and overexpressed-target specific binding and uses thereof” (priority 2020, published 2021).
“Also recorded” adds a separate entry of the source. Where no end group is shown, it is not given here.

Key:
[1] = target: T1, PD-L1 overexpressing SU-DHL-1 cells (Homo sapiens, UniProt Q9NZQ7); test: Competitive binding assay on PD-L1 overexpressing SU-DHL-1 cells; conditions: antibody at ~33.3 nM, assuming linear relationship
T1 construct: endogenous in cells; host or cells: SU-DHL-1 cells
Procedure: PC3, a low PD-L1 expressing cell is used as a control.
PE-conjugated mouse anti-human PD-L1 antibody (Clone MIN1, eBioscience) at the final concentration of 0.5 μg/100 μL (˜33.3 nM) was mixed with 4-arm PEG-2K PD-1ecto or 6-arm PEG-3.4K PD-1ecto titrated from 50 nM to 1 nM in Stain Buffer. SU-DHL-1 cells (0.5×10^6 cells) were resuspended in each titration of reagent in a final volume of 100 μL per well. After incubation for 3 h on ice with occasional mixing, the cells were washed 3 times. The amount of anti-PD-L1 antibody bound to the cells was quantified by the fluorescence intensity of PE using flow cytometry.

[2] = target: T2, HT-1080 cells in which the overexpressed uPAR is occupied by endogenous uPA (Homo sapiens, UniProt Q03405); test: Displacement of endogenous uPA from uPAR on HT-1080 cells; assay type: binding; conditions: various concentrations; 0.5-4 h on ice
T2 construct: endogenous in cells; host or cells: HT-1080 cells
Procedure: Human fibrosarcoma cell HT-1080 overexpresses both uPA and uPAR and the uPAR is occupied by the endogenous uPA. […] As a control, the competitive potency of uPAR blocking antibody (Clone VIM5) was also tested.
HT-1080 cells were plated in 96-well plate at 30,000 cells/well in 100 μL DMEM medium supplemented with 10% FBS. After overnight incubation, the culture medium was removed and 4-arm PEG-GFD, 6-arm PEG-GFD and mouse anti-uPAR antibody (Clone VIM5, Invitrogen) with various concentrations in Stain Buffer were added into each well. The cells were incubated on ice for 0.5, 1, 2, 3 and 4 h. Then, the cells were washed twice with cold PBS and fixed in 4% paraformaldehyde for 30 min. The plate was blocked with 3% MSD Blocking Buffer for 1 h and the cells were stained with mouse anti-human uPA catalytic domain antibody (Clone 204212; R&D Systems) to quantify the amount of endogenous uPA still associated with the cells. After 2 h incubation with the antibody, HRP-conjugated anti-mouse antibody was added for another hour of incubation. TMB was then added and followed by addition of stop solution. The plate was read at 450 nm absorbance to quantify the endogenous uPA.

[3] = tested on: H1299, SW480, HT-1080 and PC3 cells; test: Cell adhesion assay on vitronectin coated plate; assay type: cell-based, human; conditions: four uPAR overexpressing cell lines; 3 h; various concentrations
Procedure: For adhesion of cancer cells to vitronectin, 96-well plate was coated overnight with vitronectin (Thermo Fisher Scientific) at 5 μg/mL in PBS at 4° C., 50 μL/well. The wells without coating were used as negative controls. The plate was then blocked with 3% MSD Blocking Buffer for 2 h at room temperature. Four uPAR overexpressing human cancer lines were used for the assay: non-small cell lung cancer line H1299, colorectal cancer line SW480, fibrosarcoma line HT-1080 and prostate cancer line PC3. The cells were detached from culture flasks by trypsin/EDTA, resuspended in complete culture medium in a 50 mL conical tube, and incubated for 1 h at 37° C. in 5% CO2 incubator to allow receptor recovery. Cells were then washed with serum-free medium and resuspended in DMEM medium with 0.5% BSA. 50,000 cells in 100 μL were plated into each well with various concentrations of 4-arm and 6-arm PEG-GFD pharmacophores, and uPAR blocking antibody, VIM5. The plates were incubated at 37° C. in 5% CO2 incubator for 3 h, and washed 4 times with PBS with 0.5% BSA. The number of adherent cells in each well was quantified by CellTiter-Glo (Promega).

[4] = tested on: H1299 and HT-1080 cells; test: Chemotaxis assay (fibronectin coated transwell); assay type: cell-based, human; conditions: 10% FBS chemoattractant, 16 h
Procedure: Chemotaxis assay was performed using BD BioCoat 24-well transwell with 8 μm pore size filter which is coated with fibronectin (Corning). For the study, H1299 and HT-1080 cells were detached from culture flasks with trypsin/EDTA, and then the trypsin was deactivated by adding the complete medium. The cells were washed with serum-free medium twice and resuspended at the final density of 50,000 cells in 500 μL DMEM medium supplemented with 0.5% BSA. The cells were treated with multivalent pharmacophores and uPAR blocking antibody for 1 h at 37° C. in 5% CO2 incubator. 650 μL of DMEM with 10% FBS was used as chemoattractant and added into the lower chamber. Serum-free DMEM medium was used as a negative control, and no drug treatment well was considered as 100% migration. After placing the upper chamber into the lower chamber, 500 μL cell suspensions were added to the upper chamber. 4-arm PEG-GFD, 6-arm PEG-GFD and uPAR blocking antibody, VIM5, with various concentrations were added in both upper and lower chambers. The transwell was incubated at 37° C. in 5% CO2 incubator for 16 h. […] The number of cells migrated past the filter was quantify by reading the solution in plate reader after transferring into a white 96-well plates.

[5] = tested on: H1299 and HT-1080 cells; test: Matrigel invasion assay; assay type: cell-based, human; conditions: 10 nM, 24 h
Procedure: The migration of cells through Matrigel indicates the ability of the cells to digest the extracellular matrix during the process of migration. The Matrigel invasion assay is similar to the chemotaxis assay above except that the 8 μm pore size filter is coated with Matrigel. BD BioCoat Matrigel Invasion Chamber (Corning) was used for the assay with H1299 and HT-1080 cells. 4-arm PEG-GFD, 6-arm PEG-GFD and the blocking antibody VIM5 were used at the concentration of 10 nM. After 24 h treatment, the Matrigel along with the cells remaining on the upper surface of filter in the upper chamber was scraped off with a cotton swab. The migrated cells were measured with CellTiter-Glo as described above.

[6] = target: T3, uPAR overexpressing Hela cells (Homo sapiens, UniProt Q03405); test: Competitive binding assay on uPAR overexpressing Hela cells; conditions: ratio of IC50 values
T3 construct: endogenous in cells; host or cells: Hela cells
Source text: This assay is to measure the binding avidity of multivalent PEG-GFD pharmacophores to uPAR overexpressing Hela cells in comparison to uPA. Hela cells express uPAR but not uPA (Rabbani et al., Neoplasia, 2010, 12(10); 778-88), and therefore competition from endogenous uPA can be excluded.
Mouse anti-uPAR (Clone VIM5) is an uPAR blocking antibody (Sillaber et al., J Biol Chem, 1997, 272(12):7824-32). The potency of multivalent PEG-GFD pharmacophores and native uPA to compete against the antibody in binding to the overexpressed uPAR on the surface of Hela cells is measured and compared in this assay.
Hela cells were detached from culture flasks by trypsin/EDTA, resuspended in complete culture medium in a 50 mL conical tube, and incubated for 1 h at 37° C. in 5% CO2 incubator to allow receptor recovery. PE-conjugated anti-uPAR antibody (Clone VIM5; Invitrogen) at the final concentration of 0.5 μg/100 μL (33.33 nM) was mixed with titrated concentrations of 4-arm PEG-GFD and 6-arm PEG-GFD, and recombinant human uPA (Biolegend) in Stain Buffer. The mixture was added into Hela cells (500,000 cells in 100 μL; final density). […] The fluorescent intensity of PE on Hela cells was quantified by flow cytometry and plotted against the titration of 4-arm PEG-GFD, 6-arm PEG-GFD and uPA. The binding avidity of multivalent PEG-GFD pharmacophores relative to native uPA can be calculated.

[7] = target: T4, Human recombinant PD-L2 (Homo sapiens, UniProt Q9BQ51); test: Binding to PD-L2 coated MSD plate; conditions: test items at 5 nM; plate coated at 40 nM; FIG. 4B
T4 construct: purchased Abcam
T4 sequence (Q9BQ51 20-273): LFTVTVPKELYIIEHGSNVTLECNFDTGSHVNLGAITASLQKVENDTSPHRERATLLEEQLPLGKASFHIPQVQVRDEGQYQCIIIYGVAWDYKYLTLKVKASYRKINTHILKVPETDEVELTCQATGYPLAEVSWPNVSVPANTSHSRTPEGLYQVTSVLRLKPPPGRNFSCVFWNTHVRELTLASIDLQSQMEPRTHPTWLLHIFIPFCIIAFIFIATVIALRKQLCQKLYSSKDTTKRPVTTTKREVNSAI
Procedure: Human recombinant PD-L1, PD-L2 and CD80 (Abcam) at the concentration of 40 nM were coated onto wells of 96-well MSD plate (small spot, 40 μL/well) overnight at 4° C., and then blocked with 3% MSD Blocking Buffer for 1 h. […] The plates were shaken for another 1 h at room temperature. After washing, SULFO-TAG anti-mouse IgG antibody was added into the plates. The plates were further incubated for 1 h and then washed and read after adding 1×MSD Read Buffer. SULFO-TAG anti-human IgG antibody was added into the plate of PD-L1 Fc chimera proteins. The wells without coating were used as background binding.

[8] = target: CD47 (Homo sapiens, UniProt Q08722); conditions: Ho et al. 2015; read-out: Kd CD47/SIRPα; cited from earlier work
CD47, sequence (Q08722 19-323): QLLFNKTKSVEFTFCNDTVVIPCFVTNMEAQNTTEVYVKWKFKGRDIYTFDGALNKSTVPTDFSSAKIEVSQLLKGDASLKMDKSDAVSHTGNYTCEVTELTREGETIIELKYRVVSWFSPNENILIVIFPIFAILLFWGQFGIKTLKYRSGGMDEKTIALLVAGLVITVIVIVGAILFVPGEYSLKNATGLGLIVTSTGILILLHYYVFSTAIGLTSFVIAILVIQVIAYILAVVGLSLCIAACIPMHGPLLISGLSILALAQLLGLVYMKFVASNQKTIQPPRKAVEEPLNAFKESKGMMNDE

T1 sequence (Q9NZQ7 19-290): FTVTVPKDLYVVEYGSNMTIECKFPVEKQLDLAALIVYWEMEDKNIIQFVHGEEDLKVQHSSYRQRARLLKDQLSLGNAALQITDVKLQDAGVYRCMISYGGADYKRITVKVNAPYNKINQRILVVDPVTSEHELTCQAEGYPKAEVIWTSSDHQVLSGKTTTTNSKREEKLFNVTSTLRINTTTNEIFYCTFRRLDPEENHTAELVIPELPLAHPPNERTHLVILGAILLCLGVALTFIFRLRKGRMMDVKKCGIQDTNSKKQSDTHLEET
T2 sequence (Q03405 23-305 limits assumed): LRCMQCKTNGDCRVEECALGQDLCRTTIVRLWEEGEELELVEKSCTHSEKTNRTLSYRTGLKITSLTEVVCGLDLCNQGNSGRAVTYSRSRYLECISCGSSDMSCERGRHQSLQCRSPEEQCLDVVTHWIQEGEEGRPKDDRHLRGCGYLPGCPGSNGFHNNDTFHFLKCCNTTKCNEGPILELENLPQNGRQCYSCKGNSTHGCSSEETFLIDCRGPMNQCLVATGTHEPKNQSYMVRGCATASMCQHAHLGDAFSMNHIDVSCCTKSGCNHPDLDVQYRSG
T3 sequence (Q03405 23-335): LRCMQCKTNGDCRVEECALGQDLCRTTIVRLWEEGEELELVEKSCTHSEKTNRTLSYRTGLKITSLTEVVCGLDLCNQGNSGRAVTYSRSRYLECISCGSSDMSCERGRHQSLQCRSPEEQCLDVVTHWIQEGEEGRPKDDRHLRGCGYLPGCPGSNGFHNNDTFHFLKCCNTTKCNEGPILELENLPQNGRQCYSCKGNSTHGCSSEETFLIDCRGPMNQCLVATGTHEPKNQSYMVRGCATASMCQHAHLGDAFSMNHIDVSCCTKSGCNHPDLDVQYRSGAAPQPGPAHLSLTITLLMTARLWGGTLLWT

With “4-arm PEG-2K PD-1ecto: PD-1 ectodomain (aa. 21-169) site-specifically C-terminally conjugated to 4-arm PEG-2K, tetravalent pharmacophore” the “fold more potent than the PD-L1 blocking antibody” value [1] was “about 2.6 fold”.

In the case of “6-arm PEG-GFD: growth factor-like domain of uPA conjugated to 6-arm PEG-3.4K (VPSNCDCLNGGTCVSNKYFSNIHWCNCPKKFGGQHCEIDKSKT; not fully specified (C-terminus); ends and bridges not checked; also: conjugated to 6-arm PEG-3.4K (site not given here))”, the “displacement of bound uPA from uPAR” value [2] is reported as “generally more potent than 4-arm PEG-GFD”, the “inhibition of adhesion to vitronectin” value [3] is reported as “inhibited the adhesion of all four cell lines to vitronectin dose-dependently; also recorded: more potent than 4-arm PEG-GFD” and the “migration of cells to the lower chamber (chemotaxis)” value [4] is reported as “significantly reduced migration”. The Matrigel invasion [5] was “significantly inhibited” and the “fold increase in binding activity relative to native uPA” value [6] was roughly 85 fold.

With “PD-1 Fc chimera: recombinant human PD-1 Fc chimera protein (R&D Systems) [reference compound]” the “binding to PD-L2 coated plate” value [7] was “bound”.

In the case of “SIRPα: signal-regulatory protein alpha, binds CD47 through its N-terminal IgV-like domain”, the Kd [8] is listed as 300 to 500 nM.
